Patent US20180291082A1 (IMMATICS BIOTECHNOLOGIES, published 2018)

Target: T1, human recombinant HLA-B*08:01 (human)
T1 construct: Expressed in E. coli and purified; Assay done by ImmunAware
Test: pMHC dissociation at 37 C (b2m on heavy chain); mean half-life grade (+ >2 h, ++ >4 h, +++ >6 h, ++++ >10 h)
Experimental: The peptide-MHC stability for HLA-B*08:01 peptides was performed by ImmunAware (Copenhagen, Denmark). The data were obtained using a proximity based, homogenous, real-time assay to measure the dissociation of peptides from HLA class I molecules. First human recombinant HLA-B*08:01 and b2m were expressed in E. coli and purified in a series of liquid chromatography based steps (Ferre et al., 2003; Ostergaard et al., 2001). Afterwards, the stability of a peptide-MHC complex (pMHC) can be determined by measuring the amount of b2m associated with the MHC heavy chain over time at 37° C. (Harndahl et al., 2012). The stability of each pMHC, expressed as the half life of b2m associated with the respective heavy chain, was calculated by fitting the data to a one-phase dissociation equation.

| Binder | mean half-life (T1/2) of peptide-MHC complex |
| --- | --- |
| AAMSRYEL | 4 to 6 h |
| YVKERSKAM | 6 to 10 h |
| YKKLRTSSF | 4 to 6 h |
| EPVKKSRL | 6 to 10 h |
| HIFLRTTL | 4 to 6 h |
| LSYNKYLQL | 4 to 6 h |
| EAKRHLLQV | 4 to 6 h |
| HAKEKLTAL | 6 to 10 h |
| LLKAEPLAF | 4 to 6 h |
| DLKYNALDL | 6 to 10 h |
| FQKLKLLSL | 2 to 4 h |
| NPNLKTLL | 4 to 6 h |
| LPMLKVLNL | 2 to 4 h |
| LPFLRENDL | 4 to 6 h |
